# Experimental data published in patent publication US20190153059A1 (ADEPTHERA, published 2019).
# Square brackets hold non-standard residues; d marks the D form. Ends that are not written are not given here. * marks the point of attachment. Palmitoyl = CCCCCCCCCCCCCCCC(=O)*; miniPEG = mini-PEG spacer unit; AEEA = NCCOCCOCC(=O)O
# B1: SEQ ID NO: 145 (peptide)
# peptide: YAGFLKVQKLSAPVDPSSPHSY
# modifications: Ace- at N-terminus; (D-Ala) and (D-Leu) in Y(D-Ala)GF(D-Leu); miniPEG before K(Pal); K(Pal); -NH2
# B2: SSTR2 and CLR/RAMP MRL (SEQ ID NO: 218) (peptide)
# peptide: FCFWKTCTKVQKLAHQIYQFTDKDVAPRSKISPQGY
# modifications: (D-Phe) at position 1 and (D-Trp) in (D-Phe)CF(D-Trp)KTCT; miniPEG before K(Pal); K(Pal); -NH2
# B3: BDKRB1 antagonist and CLR/RAMP agonist MRL (SEQ ID NO: 231) (peptide)
# peptide: KRPPGFSIKGCRFGTCTVQKLAHQIYQFTDKDVAPRSKISPQGY
# modifications: Ace- at N-terminus; D/Nal in KRPPGFS-D/Nal-I; miniPEG before K(PAL); K(PAL); -NH2
# B4: AGTRL1 and CLR/RAMP agonist MRL (SEQ ID NO: 228) (peptide)
# peptide: XRPRLSHKGPLPFKGCRFGTCTVQKLAHQIYQFTDKDVAPRSKISPQGY
# modifications: not fully specified; (Glp) at N-terminus; (Nle) in RPRLSHKGP(Nle)PF; miniPEG before K(PAL); K(PAL); -NH2
# Target: T1, CLR/RAMP2 receptor (UniProt Q16602 23-461; O60895 43-175, limits assumed)
# Test: cell-based or functional assay
# T1 sequence (Q16602 23-461 limits assumed, chain 1 of 2): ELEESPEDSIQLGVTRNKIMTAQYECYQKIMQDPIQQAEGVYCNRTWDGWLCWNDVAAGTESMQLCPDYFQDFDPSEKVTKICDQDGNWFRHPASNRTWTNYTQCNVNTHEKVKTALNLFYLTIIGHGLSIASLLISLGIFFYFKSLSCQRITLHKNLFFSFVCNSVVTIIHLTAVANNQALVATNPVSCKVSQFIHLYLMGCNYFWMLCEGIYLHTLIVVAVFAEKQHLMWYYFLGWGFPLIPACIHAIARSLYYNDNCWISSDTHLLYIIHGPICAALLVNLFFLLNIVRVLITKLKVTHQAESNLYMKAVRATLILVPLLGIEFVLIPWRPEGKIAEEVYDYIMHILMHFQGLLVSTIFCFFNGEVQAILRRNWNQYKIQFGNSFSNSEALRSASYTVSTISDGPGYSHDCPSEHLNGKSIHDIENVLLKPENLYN
# T1 sequence (O60895 43-175 limits assumed, chain 2 of 2): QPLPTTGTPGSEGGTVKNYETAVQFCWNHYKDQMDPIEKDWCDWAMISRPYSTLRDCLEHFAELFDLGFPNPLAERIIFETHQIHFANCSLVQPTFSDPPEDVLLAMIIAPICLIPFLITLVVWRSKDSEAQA
Binder,CLR/RAMP2 IC50 [nM],CLR/RAMP2 Max Activity (antagonist)
Palmitoyl-TVQKLAHQIYQFTDKDKDNSAPVDPSSPHSY-NH2 [SEQ ID NO: 77],47,–
Palmitoyl-KVQKLAHQIYQFTDKDVAPRSKISPQGY-NH2 [SEQ ID NO: 119],0.6,–
Ac-NFVPTNVGPFAF-NH2 [SEQ ID NO: 144],> 10000,0 % of positive control
Palmitoyl-KVQKLAHQIYSAPVDPSSPHSY-NH2 [SEQ ID NO: 122],61,–
Pal-KVQKLAHQSAPVDPSSPHSY-NH2 [SEQ ID NO: 124],–,103 % of positive control
Ace-VTHRLAGLLSRFTDKDKDNVAPRSKISPQGY-NH2 [SEQ ID NO: 115],117,–
Palmitoyl-KVQKLNFVPTNVGSKAF-NH2 [SEQ ID NO: 142],–,80 % of positive control
Ace-TVQKLAHRLWQLMGPDKDNVAPRSKISPQGY-NH2 [SEQ ID NO: 116],7.3,–
"MiniPEG-KVQKLAHQIYQFTDKDSAPVDPSSPHSY-NH2 (also: K(Pal), Lys not given here) [SEQ ID NO: 112]",5.3,–
Palmitoyl-KVQNLSHRLWQLMGPAGSAPVDPSSPHSY-NH2 [SEQ ID NO: 120],85,–
Ac-TVQKLAHQIYQFTDKDKDNSAPVDPSSPHSY-NH2 [SEQ ID NO: 76],289,–
Palmitoyl-KVQKLAHQIYQFTDKSAPVDPSSPHSY-NH2 [SEQ ID NO: 125],7.1,–
miniPEG-K(Palmitoyl)VQKLAHQIYQFTDKDKDNSAPVDPSSPHSY-NH2 [SEQ ID NO: 78],34,107 % of positive control
Palmitoyl-KVQKLAHQIYQFTDKDSAPVDPSSPHSY-NH2 [SEQ ID NO: 121],4.9,–
Palmitoyl-KVQKLAHQISAPVDPSSPHSY-NH2 [SEQ ID NO: 123],50,–
Palmitoyl-KVQNLSAPVDPSSPHSY-NH2 [SEQ ID NO: 141],–,14 % of positive control
"MiniPEG-KVQKLAHQIYSAPVDPSSPHSY-NH2 (also: K(Pal), Lys not given here) [SEQ ID NO: 114]",146,–

# Target: T2, CLR/RAMP3 receptor (UniProt Q16602 23-461; O60896 24-148, limits assumed)
# Test: cell-based or functional assay
# T2 sequence (Q16602 23-461 limits assumed, chain 1 of 2): as the sequence (Q16602 23-461 limits assumed, chain 1 of 2) above
# T2 sequence (O60896 24-148 limits assumed, chain 2 of 2): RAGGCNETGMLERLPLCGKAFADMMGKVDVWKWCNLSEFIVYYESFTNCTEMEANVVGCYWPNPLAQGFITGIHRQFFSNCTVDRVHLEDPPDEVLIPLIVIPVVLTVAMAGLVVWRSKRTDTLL
Binder,CLR/RAMP3 IC50 [nM],CLR/RAMP3 Max Activity (antagonist)
Palmitoyl-KVQKLAHQIYQFTDKDVAPRSKISPQGY-NH2 [SEQ ID NO: 119],1.5,–
Palmitoyl-KVQKLAHQIYSAPVDPSSPHSY-NH2 [SEQ ID NO: 122],4.1,–
Pal-KVQKLAHQSAPVDPSSPHSY-NH2 [SEQ ID NO: 124],–,102 % of positive control
Ace-VTHRLAGLLSRFTDKDKDNVAPRSKISPQGY-NH2 [SEQ ID NO: 115],115,–
Ace-TVQKLAHRLWQLMGPDKDNVAPRSKISPQGY-NH2 [SEQ ID NO: 116],53,–
"MiniPEG-KVQKLAHQIYQFTDKDSAPVDPSSPHSY-NH2 (also: K(Pal), Lys not given here) [SEQ ID NO: 112]",2.3,–
Palmitoyl-KVQNLSHRLWQLMGPAGSAPVDPSSPHSY-NH2 [SEQ ID NO: 120],9.2,–
miniPEG-K(Palmitoyl)VQKLAHQIYQFTDKDKDNSAPVDPSSPHSY-NH2 [SEQ ID NO: 78],0.8,101 % of positive control
Palmitoyl-KVQKLAHQIYQFTDKDSAPVDPSSPHSY-NH2 [SEQ ID NO: 121],1.8,–
"MiniPEG-KVQKLAHQIYSAPVDPSSPHSY-NH2 (also: K(Pal), Lys not given here) [SEQ ID NO: 114]",8.4,–

# Target: T3, CLR/RAMP1 receptor (UniProt Q16602 23-461; O60894 27-148, limits assumed)
# Test: cell-based or functional assay
# T3 sequence (Q16602 23-461 limits assumed, chain 1 of 2): as the sequence (Q16602 23-461 limits assumed, chain 1 of 2) above
# T3 sequence (O60894 27-148 limits assumed, chain 2 of 2): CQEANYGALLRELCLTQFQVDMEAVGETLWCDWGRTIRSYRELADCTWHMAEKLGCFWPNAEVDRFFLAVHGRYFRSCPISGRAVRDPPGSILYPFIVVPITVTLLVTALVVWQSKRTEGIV
Binder,CLR/RAMP1 IC50 [nM],CLR/RAMP1 Max Activity (antagonist)
Palmitoyl-TVQKLAHQIYQFTDKDKDNSAPVDPSSPHSY-NH2 [SEQ ID NO: 77],9.9,–
Palmitoyl-KVQKLAHQIYQFTDKDVAPRSKISPQGY-NH2 [SEQ ID NO: 119],21,–
Palmitoyl-KVQKLAHQIYSAPVDPSSPHSY-NH2 [SEQ ID NO: 122],7.3,–
Pal-KVQKLAHQSAPVDPSSPHSY-NH2 [SEQ ID NO: 124],–,95 % of positive control
Ace-VTHRLAGLLSRFTDKDKDNVAPRSKISPQGY-NH2 [SEQ ID NO: 115],1880,–
Palmitoyl-KVQKLNFVPTNVGSKAF-NH2 [SEQ ID NO: 142],–,100 % of positive control
Ace-TVQKLAHRLWQLMGPDKDNVAPRSKISPQGY-NH2 [SEQ ID NO: 116],152,–
"MiniPEG-KVQKLAHQIYQFTDKDSAPVDPSSPHSY-NH2 (also: K(Pal), Lys not given here) [SEQ ID NO: 112]",1.8,–
Palmitoyl-KVQNLSHRLWQLMGPAGSAPVDPSSPHSY-NH2 [SEQ ID NO: 120],5.8,–
Ac-TVQKLAHQIYQFTDKDKDNSAPVDPSSPHSY-NH2 [SEQ ID NO: 76],1120,–
Palmitoyl-KVQKLAHQIYQFTDKSAPVDPSSPHSY-NH2 [SEQ ID NO: 125],7,–
B1,< 0.5,99 % of positive control
YGGFLRRIRPKLKKVQKLSAPVDPSSPHSY (Ace- at N-terminus; miniPEG between YGGFLRRIRPKLK and K(Pal); K(Pal); -NH2) [SEQ ID NO: 146],< 0.5,102 % of positive control
miniPEG-K(Palmitoyl)VQKLAHQIYQFTDKDKDNSAPVDPSSPHSY-NH2 [SEQ ID NO: 78],4.8,104 % of positive control
Palmitoyl-KVQKLAHQIYQFTDKDSAPVDPSSPHSY-NH2 [SEQ ID NO: 121],3.2,–
Palmitoyl-KVQKLAHQISAPVDPSSPHSY-NH2 [SEQ ID NO: 123],4.7,–
Palmitoyl-KVQNLSAPVDPSSPHSY-NH2 [SEQ ID NO: 141],–,43 % of positive control
"MiniPEG-KVQKLAHQIYSAPVDPSSPHSY-NH2 (also: K(Pal), Lys not given here) [SEQ ID NO: 114]",4.8,–

# Target: T1, CLR/RAMP2 receptor
# Test: cell-based or functional assay
# Remark: another data set of the same source
Binder,CLR/RAMP2 EC50 [nM],CLR/RAMP2 Max Activity,CLR/RAMP2 IC50 [nM],CLR/RAMP2 Max Activity (antagonist)
XLYENKPRRPYILKGCRFGTCTVQKLAHQIYQFTDKDVAPRSKISPQGY (Pyr(glu)- at N-terminus; miniPEG between LYENKPRRPYIL and K(PAL); K(PAL); -NH2) [NTSR1 and CLR/RAMP agonist MRL (SEQ ID NO: 223)],1,70 % of positive controls,–,–
B2,–,–,< 0.5,87 % of positive controls
B3,1,46 % of positive controls,–,–
B4,2,74 % of positive controls,–,–

# Target: T3, CLR/RAMP1 receptor
# Test: cell-based or functional assay
# Remark: another data set of the same source
Binder,CLR/RAMP1 EC50 [nM],CLR/RAMP1 Max Activity,CLR/RAMP1 IC50 [nM],CLR/RAMP1 Max Activity (antagonist)
XLYENKPRRPYILKGCRFGTCTVQKLAHQIYQFTDKDVAPRSKISPQGY (Pyr(glu)- at N-terminus; miniPEG between LYENKPRRPYIL and K(PAL); K(PAL); -NH2) [NTSR1 and CLR/RAMP agonist MRL (SEQ ID NO: 223)],0.8,102 % of positive controls,–,–
B2,–,–,2,102 % of positive controls
B4,0.6,130 % of positive controls,–,–

# Target: T1, CLR/RAMP2 receptor
# Test: cell-based or functional assay
# Remark: another data set of the same source
Binder,CLR/RAMP2 EC50 [nM],CLR/RAMP2 Max Activity
Ac-TK(Palmitoyl)KTLRTGCRFGTCTVQKLAHQIYQFTDKDKDNVAPVDPSSPHSY-NH2 (ends and bridges not checked) [SEQ ID NO: 41],0.9,–
Palmitoyl-KTKKTLRTGCRFGTCTVQKLAHQIYQFTDKDKDNVAPVDPSSPHSY-NH2 (ends and bridges not checked) [SEQ ID NO: 40],1,–
Palmitoyl-KCRFGTCTVQKLAHQIYQFTDKDKDNSAPVDPSSPHSY-NH2 (ends and bridges not checked) [SEQ ID NO: 44],0.2,–
Palmitoyl-GCRFGTCTVQKLAHQIYQFTDKDKDNSAPVDPSSPHSY-NH2 (ends and bridges not checked) [SEQ ID NO: 45],0.3,–
[AEEA]K(Palmitoyl)CRFGTCTVQKLAHQIYQFTDKDKDNSAPVDPSSPHSY-NH2 (ends and bridges not checked) [SEQ ID NO: 43],0.2,30 % of positive control
"miniPEG-KGCRFGTCTVQKLAHQIYQFTDKDVAPRSKISPQGY-NH2 (ends and bridges not checked; also: K(PAL), position not given here) [SEQ ID NO: 101]",0.3,–

# Target: T2, CLR/RAMP3 receptor
# Test: cell-based or functional assay
# Remark: another data set of the same source
row,Binder,CLR/RAMP3 EC50 [nM]
1,"miniPEG-KGCRFGTCTVQKLAHQIYQFTDKDVAPRSKISPQGY-NH2 (ends and bridges not checked; also: K(PAL), position not given here) [SEQ ID NO: 101]",0.5

# Target: T3, CLR/RAMP1 receptor
# Test: cell-based or functional assay
# Remark: another data set of the same source
Binder,CLR/RAMP1 EC50 [nM],CLR/RAMP1 Max Activity
Ac-TK(Palmitoyl)KTLRTGCRFGTCTVQKLAHQIYQFTDKDKDNVAPVDPSSPHSY-NH2 (ends and bridges not checked) [SEQ ID NO: 41],0.4,–
Palmitoyl-KTKKTLRTGCRFGTCTVQKLAHQIYQFTDKDKDNVAPVDPSSPHSY-NH2 (ends and bridges not checked) [SEQ ID NO: 40],2,–
Palmitoyl-KCRFGTCTVQKLAHQIYQFTDKDKDNSAPVDPSSPHSY-NH2 (ends and bridges not checked) [SEQ ID NO: 44],0.1,–
Palmitoyl-GCRFGTCTVQKLAHQIYQFTDKDKDNSAPVDPSSPHSY-NH2 (ends and bridges not checked) [SEQ ID NO: 45],0.1,–
[AEEA]K(Palmitoyl)CRFGTCTVQKLAHQIYQFTDKDKDNSAPVDPSSPHSY-NH2 (ends and bridges not checked) [SEQ ID NO: 43],0.5,39 % of positive control
